B1: SEPT9_HUMAN (protein, UniProt Q9UHD8 1-586, looked up)
Septin-9: MKKSYSGGTRTSSGRLRRLGDSSGPALKRSFEVEEVETPNSTPPRRVQTPLLRATVASSTQKFQDLGVKNSEPSARHVDSLSQRSPKASLRRVELSGPKAAEPVSRRTELSIDISSKQVENAGAIGPSRFGLKRAEVLGHKTPEPAPRRTEITIVKPQESAHRRMEPPASKVPEVPTAPATDAAPKRVEIQMPKPAEAPTAPSPAQTLENSEPAPVSQLQSRLEPKPQPPVAEATPRSQEATEAAPSCVGDMADTPRDAGLKQAPASRNEKAPVDFGYVGIDSILEQMRRKAMKQGFEFNIMVVGQSGLGKSTLINTLFKSKISRKSVQPTSEERIPKTIEIKSITHDIEEKGVRMKLTVIDTPGFGDHINNENCWQPIMKFINDQYEKYLQEEVNINRKKRIPDTRVHCCLYFIPATGHSLRPLDIEFMKRLSKVVNIVPVIAKADTLTLEERVHFKQRITADLLSNGIDVYPQKEFDEDSEDRLVNEKFREMIPFAVVGSDHEYQVNGKRILGRKTKWGTIEVENTTHCEFAYLRDLLIRTHMQNIKDITSSIHFEAYRVKRLNEGSSAMANGMEEKEPEAPEM
B2: U2AF2_HUMAN (protein, UniProt P26368 2-475, looked up)
Splicing factor U2AF 65 kDa …: SDFDEFERQLNENKQERDKENRHRKRSHSRSRSRDRKRRSRSRDRRNRDQRSASRDRRRRSKPLTRGAKEEHGGLIRSPRHEKKKKVRKYWDVPPPGFEHITPMQYKAMQAAGQIPATALLPTMTPDGLAVTPTPVPVVGSQMTRQARRLYVGNIPFGITEEAMMDFFNAQMRLGGLTQAPGNPVLAVQINQDKNFAFLEFRSVDETTQAMAFDGIIFQGQSLKIRRPHDYQPLPGMSENPSVYVPGVVSTVVPDSAHKLFIGGLPNYLNDDQVKELLTSFGPLKAFNLVKDSATGLSKGYAFCEYVDINVTDQAIAGLNGMQLGDKKLLVQRASVGAKNATLVSPPSTINQTPVTLQVPGLMSSQVQMGGHPTEVLCLMNMVLPEELLDDEEYEEIVEDVRDECSKYGLVKSIEIPRPVDGVEVPGCGKIFVEFTSVFDCQKAMQGLTGRKFANRVVVTKYCDPDSYHRRDFW
B3: NUCB1_HUMAN (protein, UniProt Q02818 27-461, looked up)
Nucleobindin-1: VPLERGAPNKEETPATESPDTGLYYHRYLQEVIDVLETDGHFREKLQAANAEDIKSGKLSRELDFVSHHVRTKLDELKRQEVSRLRMLLKAKMDAEQDPNVQVDHLNLLKQFEHLDPQNQHTFEARDLELLIQTATRDLAQYDAAHHEEFKRYEMLKEHERRRYLESLGEEQRKEAERKLEEQQRRHREHPKVNVPGSQAQLKEVWEELDGLDPNRFNPKTFFILHDINSDGVLDEQELEALFTKELEKVYDPKNEEDDMREMEEERLRMREHVMKNVDTNQDRLVTLEEFLASTQRKEFGDTGEGWETVEMHPAYTEEELRRFEEELAAREAELNAKAQRLSQETEALGRSQGRLEAQKRELQQAVLHMEQRKQQQQQQQGHKAPAAHPEGQLKFHPDTDDVPVPAPAGDQKEVDTSEKKLLERLPEVEVPQHL
B4: MCM4_HUMAN (protein, UniProt P33991 2-863, looked up)
DNA replication licensing …: SSPASTPSRRGSRRGRATPAQTPRSEDARSSPSQRRRGEDSTSTGELQPMPTSPGVDLQSPAAQDVLFSSPPQMHSSAIPLDFDVSSPLTYGTPSSRVEGTPRSGVRGTPVRQRPDLGSAQKGLQVDLQSDGAAAEDIVASEQSLGQKLVIWGTDVNVAACKENFQRFLQRFIDPLAKEEENVGIDITEPLYMQRLGEINVIGEPFLNVNCEHIKSFDKNLYRQLISYPQEVIPTFDMAVNEIFFDRYPDSILEHQIQVRPFNALKTKNMRNLNPEDIDQLITISGMVIRTSQLIPEMQEAFFQCQVCAHTTRVEMDRGRIAEPSVCGRCHTTHSMALIHNRSLFSDKQMIKLQESPEDMPAGQTPHTVILFAHNDLVDKVQPGDRVNVTGIYRAVPIRVNPRVSNVKSVYKTHIDVIHYRKTDAKRLHGLDEEAEQKLFSEKRVELLKELSRKPDIYERLASALAPSIYEHEDIKKGILLQLFGGTRKDFSHTGRGKFRAEINILLCGDPGTSKSQLLQYVYNLVPRGQYTSGKGSSAVGLTAYVMKDPETRQLVLQTGALVLSDNGICCIDEFDKMNESTRSVLHEVMEQQTLSIAKAGIICQLNARTSVLAAANPIESQWNPKKTTIENIQLPHTLLSRFDLIFLLLDPQDEAYDRRLAHHLVALYYQSEEQAEEELLDMAVLKDYIAYAHSTIMPRLSEEASQALIEAYVDMRKIGSSRGMVSAYPRQLESLIRLAEAHAKVRLSNKVEAIDVEEAKRLHREALKQSATDPRTGIVDISILTTGMSATSRKRKEELAEALKKLILSKGKTPALKYQQLFEDIRGQSDIAITKDMFEEALRALADDDFLTVTGKTVRLL
B5: SF01_HUMAN (protein, UniProt Q15637 2-639, looked up)
Splicing factor 1: ATGANATPLDFPSKKRKRSRWNQDTMEQKTVIPGMPTVIPPGLTREQERAYIVQLQIEDLTRKLRTGDLGIPPNPEDRSPSPEPIYNSEGKRLNTREFRTRKKLEEERHNLITEMVALNPDFKPPADYKPPATRVSDKVMIPQDEYPEINFVGLLIGPRGNTLKNIEKECNAKIMIRGKGSVKEGKVGRKDGQMLPGEDEPLHALVTANTMENVKKAVEQIRNILKQGIETPEDQNDLRKMQLRELARLNGTLREDDNRILRPWQSSETRSITNTTVCTKCGGAGHIASDCKFQRPGDPQSAQDKARMDKEYLSLMAELGEAPVPASVGSTSGPATTPLASAPRPAAPANNPPPPSLMSTTQSRPPWMNSGPSESRPYHGMHGGGPGGPGGGPHSFPHPLPSLTGGHGGHPMQHNPNGPPPPWMQPPPPPMNQGPHPPGHHGPPPMDQYLGSTPVGSGVYRLHQGKGMMPPPPMGMMPPPPPPPSGQPPPPPSGPLPPWQQQQQQPPPPPPPSSSMASSTPLPWQQNTTTTTTSAGTGSIPPWQQQQAAAAASPGAPQMQGNPTMVPLPPGVQPPLPPGAPPPPPPPPPGSAGMMYAPPPPPPPPMDPSNFVTMMGMGVAGMPPFGMPPAPPPPPPQN
B6: FUBP2_HUMAN (protein, UniProt Q92945 2-711, looked up)
Far upstream element-binding …: SDYSTGGPPPGPPPPAGGGGGAGGAGGGPPPGPPGAGDRGGGGPGGGGPGGGSAGGPSQPPGGGGPGIRKDAFADAVQRARQIAAKIGGDAATTVNNSTPDFGFGGQKRQLEDGDQPESKKLASQGDSISSQLGPIHPPPRTSMTEEYRVPDGMVGLIIGRGGEQINKIQQDSGCKVQISPDSGGLPERSVSLTGAPESVQKAKMMLDDIVSRGRGGPPGQFHDNANGGQNGTVQEIMIPAGKAGLVIGKGGETIKQLQERAGVKMILIQDGSQNTNVDKPLRIIGDPYKVQQACEMVMDILRERDQGGFGDRNEYGSRIGGGIDVPVPRHSVGVVIGRSGEMIKKIQNDAGVRIQFKQDDGTGPEKIAHIMGPPDRCEHAARIINDLLQSLRSGPPGPPGGPGMPPGGRGRGRGQGNWGPPGGEMTFSIPTHKCGLVIGRGGENVKAINQQTGAFVEISRQLPPNGDPNFKLFIIRGSPQQIDHAKQLIEEKIEGPLCPVGPGPGGPGPAGPMGPFNPGPFNQGPPGAPPHAGGPPPHQYPPQGWGNTYPQWQPPAPHDPSKAAAAAADPNAAWAAYYSHYYQQPPGPVPGPAPAPAAPPAQGEPPQPPPTGQSDYTKAWEEYYKKIGQQPQQPGAPPQQDYTKAWEEYYKKQAQVATGGGPGAPPGSQPDYSAAWAEYYRQQAAYYGQTPGPGGPQPPPTQQGQQQAQ
B7: SYDC_HUMAN (protein, UniProt P14868 1-501, looked up)
Aspartate--tRNA ligase, …: MPSASASRKSQEKPREIMDAAEDYAKERYGISSMIQSQEKPDRVLVRVRDLTIQKADEVVWVRARVHTSRAKGKQCFLVLRQQQFNVQALVAVGDHASKQMVKFAANINKESIVDVEGVVRKVNQKIGSCTQQDVELHVQKIYVISLAEPRLPLQLDDAVRPEAEGEEEGRATVNQDTRLDNRVIDLRTSTSQAVFRLQSGICHLFRETLINKGFVEIQTPKIISAASEGGANVFTVSYFKNNAYLAQSPQLYKQMCICADFEKVFSIGPVFRAEDSNTHRHLTEFVGLDIEMAFNYHYHEVMEEIADTMVQIFKGLQERFQTEIQTVNKQFPCEPFKFLEPTLRLEYCEALAMLREAGVEMGDEDDLSTPNEKLLGHLVKEKYDTDFYILDKYPLAVRPFYTMPDPRNPKQSNSYDMFMRGEEILSGAQRIHDPQLLTERALHHGIDLEKIKAYIDSFRFGAPPHAGGGIGLERVTMLFLGLHNVRQTSMFPRDPKRLTP
B8: DDX17_HUMAN (protein, UniProt Q92841 1-729, looked up)
Probable ATP-dependent RNA …: MPTGFVAPILCVLLPSPTREAATVASATGDSASERESAAPAAAPTAEAPPPSVVTRPEPQALPSPAIRAPLPDLYPFGTMRGGGFGDRDRDRDRGGFGARGGGGLPPKKFGNPGERLRKKKWDLSELPKFEKNFYVEHPEVARLTPYEVDELRRKKEITVRGGDVCPKPVFAFHHANFPQYVMDVLMDQHFTEPTPIQCQGFPLALSGRDMVGIAQTGSGKTLAYLLPAIVHINHQPYLERGDGPICLVLAPTRELAQQVQQVADDYGKCSRLKSTCIYGGAPKGPQIRDLERGVEICIATPGRLIDFLESGKTNLRRCTYLVLDEADRMLDMGFEPQIRKIVDQIRPDRQTLMWSATWPKEVRQLAEDFLRDYTQINVGNLELSANHNILQIVDVCMESEKDHKLIQLMEEIMAEKENKTIIFVETKRRCDDLTRRMRRDGWPAMCIHGDKSQPERDWVLNEFRSGKAPILIATDVASRGLDVEDVKFVINYDYPNSSEDYVHRIGRTARSTNKGTAYTFFTPGNLKQARELIKVLEEANQAINPKLMQLVDHRGGGGGGGGRSRYRTTSSANNPNLMYQDECDRRLRGVKDGGRRDSASYRDRSETDRAGYANGSGYGSPNSAFGAQAGQYTYGQGTYGAAAYGTSSYTAQEYGAGTYGASSTTSTGRSSQSSSQQFSGIGRSGQQPQPLMSQQFAQPPGATNMIGYMGQTAYQYPPPPPPPPPSRK
B9: GCSP_HUMAN (protein, UniProt P23378 36-1020, looked up)
Glycine dehydrogenase …: DSSSGGGDSAAAGASRLLERLLPRHDDFARRHIGPGDKDQREMLQTLGLASIDELIEKTVPANIRLKRPLKMEDPVCENEILATLHAISSKNQIWRSYIGMGYYNCSVPQTILRNLLENSGWITQYTPYQPEVSQGRLESLLNYQTMVCDITGLDMANASLLDEGTAAAEALQLCYRHNKRRKFLVDPRCHPQTIAVVQTRAKYTGVLTELKLPCEMDFSGKDVSGVLFQYPDTEGKVEDFTELVERAHQSGSLACCATDLLALCILRPPGEFGVDIALGSSQRFGVPLGYGGPHAAFFAVRESLVRMMPGRMVGVTRDATGKEVYRLALQTREQHIRRDKATSNICTAQALLANMAAMFAIYHGSHGLEHIARRVHNATLILSEGLKRAGHQLQHDLFFDTLKIQCGCSVKEVLGRAAQRQINFRLFEDGTLGISLDETVNEKDLDDLLWIFGCESSAELVAESMGEECRGIPGSVFKRTSPFLTHQVFNSYHSETNIVRYMKKLENKDISLVHSMIPLGSCTMKLNSSSELAPITWKEFANIHPFVPLDQAQGYQQLFRELEKDLCELTGYDQVCFQPNSGAQGEYAGLATIRAYLNQKGEGHRTVCLIPKSAHGTNPASAHMAGMKIQPVEVDKYGNIDAVHLKAMVDKHKENLAAIMITYPSTNGVFEENISDVCDLIHQHGGQVYLDGANMNAQVGICRPGDFGSDVSHLNLHKTFCIPHGGGGPGMGPIGVKKHLAPFLPNHPVISLKRNEDACPVGTVSAAPWGSSSILPISWAYIKMMGGKGLKQATETAILNANYMAKRLETHYRILFRGARGYVGHEFILDTRPFKKSANIEAVDVAKRLQDYGFHAPTMSWPVAGTLMVEPTESEDKAELDRFCDAMISIRQEIADIEEGRIDPRVNPLKMSPHSLTCVTSSHWDRPYSREVAAFPLPFVKPENKFWPTIARIDDIYGDQHLVCTCPPMEVYESPFSEQKRASS

In the test the test system is KDM4A-I71AzF. Description: CASI: photo-crosslinking with HEK293T cell extracts, StrepTactin enrichment and LC-MS/MS proteomics.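 Further: lysates from HEK293T cells pretreated with a KDM4 inhibitor to raise proteome methylation, affinity-purified after ±UV, gel-resolved, trypsin-digested, with exclusive unique peptides per protein averaged per condition.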 It counts as binding, human. Conditions: sheet "Final results but with 0.01".
For B1, the “Fold change (+UV/-UV)” value was 0.6667. The result for B2 reads 2; that for B3, 3. For the molecule B4, the “Fold change (+UV/-UV)” value came to 0.5. For the molecule B5, the “Fold change (+UV/-UV)” value was 0.9.

For B6, the “Fold change (+UV/-UV)” value was found to be 1.125.

In the case of B7, the “Fold change (+UV/-UV)” value came out at 2. As for B8, the “Fold change (+UV/-UV)” value stood at 1. As for B9, the figure is 6.

The record behind these values is paper PMC10540216, “Activity Guided Azide-methyllysine Photo-trapping for Substrate Profiling of Lysine Demethylases” (Journal of the American Chemical Society, 2023).
